*1 amine or outer side, *2 acyl side, *3 side chain or, on linkers, in order; H or OH if unused. Bridges are numbered along the chain shown (N, C = ends). Where no end group is shown, it is not given here. TATA = O=C(CC[*:1])N1CN(C(=O)CC[*:2])CN(C(=O)CC[*:3])C1; TBMB = c1c(C[*:1])cc(C[*:3])cc1C[*:2]
T1: human CD38 (Homo sapiens, UniProt P28907)
T1 sequence (P28907 1-300): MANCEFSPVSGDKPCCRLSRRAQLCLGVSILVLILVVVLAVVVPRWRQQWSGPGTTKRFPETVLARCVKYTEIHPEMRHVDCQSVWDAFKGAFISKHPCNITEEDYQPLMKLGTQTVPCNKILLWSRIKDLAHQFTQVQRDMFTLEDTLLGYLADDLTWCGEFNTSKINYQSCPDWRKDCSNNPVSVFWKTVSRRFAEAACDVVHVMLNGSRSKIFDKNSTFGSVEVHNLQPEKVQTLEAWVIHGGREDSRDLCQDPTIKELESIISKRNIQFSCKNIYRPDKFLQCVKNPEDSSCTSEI

T2: human CD38 (human, UniProt P28907 43-300, limits assumed)
T2 construct: construct used is not described; also called hCD38
T2 sequence (looked up): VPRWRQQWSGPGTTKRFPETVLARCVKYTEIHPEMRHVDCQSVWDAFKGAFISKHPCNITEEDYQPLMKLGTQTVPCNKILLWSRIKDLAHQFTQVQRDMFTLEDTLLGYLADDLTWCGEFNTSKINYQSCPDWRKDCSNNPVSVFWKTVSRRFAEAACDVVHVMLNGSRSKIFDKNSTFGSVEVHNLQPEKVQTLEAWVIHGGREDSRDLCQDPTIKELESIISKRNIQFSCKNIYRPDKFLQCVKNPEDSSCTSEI


How the values were obtained:
human CD38 [1] = biological target: T1, human CD38; assay: CD38 Competition Binding Assay (fluorescence polarisation); conditions: compared with all-thioether Reference Example 1
Description: CD38 Competition Binding Assay Affinity of various bicycle peptide compounds for human CD38 (Ki) was determined using a fluorescence polarisation assay, using the method reported by Lea et al (Expert Opin Drug Discov. 2011 6(1): 17-3) and using the following fluorescently labelled peptides […]-Sar6-K(F1) for TBMB derivatives and […]-Sar6-K(F1) for TATA derivatives where Fl is a fluorescein molecule.

human CD38 [2] = biological target: T2, human CD38; assay: fluorescence polarisation competition; tracer m11
human CD38 [3] = biological target: T2, human CD38; assay: fluorescence polarisation competition; tracer m10

Row | Ki (human CD38 [2]) [nM] | Molecule | other results
1 |  | [Ac]ACVPCADFPIWYC [BCY00009245] | affinity to CD38 (in words) (human CD38 [1]): high affinity
2 | 316 | ACYWNPFTACYSCTEN (linker 2-10-13 via TATA (inferred), bicyclic; also called 66-50-19-T02-N001) [66-50-19-T002-N001] | 
3 | 90 | ACYWNPFTACWSCEND (linker 2-10-13 via TATA (inferred), bicyclic) [66-50-16-T01-N001] | 
4 |  | ACFTLDGECFLLGENCA (linker 2-9-16 via TBMB, bicyclic) [66-08-52-N001] | Ki (human CD38 [3]): 562 nM

Source: US20210122804A1, “PEPTIDE LIGANDS FOR BINDING TO CD38” (BicycleTx Limited, priority 2018, published 2021)
